Measurements from article PMC10165346 (Computational and Structural Biotechnology Journal, 2023).

B1: mouse TRIM56 coiled-coil domain (residues 215-303) (domain or fragment, UniProt Q80VI1 215-303, looked up)
chain: GLEELLAGVDSNLVELEATRVAEKEALALLREQAASVGTQVEEAAERILKSLLAQKQEVLGQLRALVEAAEEATRERLTKIERQEQVAK
B2: mouse TRIM56 coiled-coil domain mutant (L244A, V251A, V255A, I262A, L266A, Q269A, V273A, Q276A, L277A, L280A, R291A) (domain or fragment, UniProt Q80VI1 215-303, looked up)
chain: GLEELLAGVDSNLVELEATRVAEKEALALAREQAASAGTQAEEAAERALKSALAAKQEALGAARAAVEAAEEATREALTKIERQEQVAK
B3: FLAG-tagged full-length mouse TRIM56, wild type (natural protein, UniProt Q80VI1 1-734, looked up)
chain: MNSKVSSPTLLEALSSDFLACKICLEQLHTPKTLPCLHTYCQDCLAQLDIGGQVRCPECREIVPVPAEGVAAFKTNFFVNGLLDLVKARAPGDVHSGKPTCALCPLVGGKSSGGPATARCLDCADDLCQACADGHRCSRQTHKHRVVDLVGYRAGWYDEEARERQASQCPQHPGEALCFLCQPCSQLLCKDCRLGPHIDHPCLPLAEAVRSRKPGLEELLAGVDSNLVELEATRVAEKEALALLREQAASVGTQVEEAAERILKSLLAQKQEVLGQLRALVEAAEEATRERLTKIERQEQVAKAAAAFARRVLSLGLEAEILSLEGAITQRLRQLQDAPWTSGPTRCVLPQLELHPGLEDKNCHLLRLIFEEPKQSPKDSGKGGAGTQGGDEAQGQGDDRTKIGKQGGAQPLTPKEGKDQNPQEDDGVFIERGNRPNKKKKCKGRGKSVSREPSPILRPNLEGSGLLPRPVFSWSFPTRMPGDKRSPRITGLCPYGPQEILVADEQNRVLKRFSLNGDYKGTVQVPEGCSPCSVAALQNAVAFSANAKLYLVSPDGEIQWRRSLSLTQSSHAVAAMPCGDRVAVSVAGHVEVYKKDGSLATRFIPGGKASRGQRALVFLTTSPQGNFVGSDWQQNSVVFCDGLGQVIWEYKGPGLHGCQPGSVSVDKKGYIFLTLREVNKVVILDPKGSLLGDFLTAYHGLEKPRVTTMVDGKYLVVSLSNGTIHVFRVRFPDS
B4: mouse TRIM56 RING domain (residues 2-88) (domain or fragment, UniProt Q80VI1 2-88, looked up)
chain: NSKVSSPTLLEALSSDFLACKICLEQLHTPKTLPCLHTYCQDCLAQLDIGGQVRCPECREIVPVPAEGVAAFKTNFFVNGLLDLVKA

How the values were obtained:
SEC-MALS = target: the molecule itself; assay: SEC-MALS
cross-linking = target: the molecule itself; assay: cross-linking

| Protein | stoichiometry N (SEC-MALS) | stoichiometry N (cross-linking) |
| --- | --- | --- |
| B1 | 4 |  |
| B2 | 2 |  |
| B3 |  | 4 |
| B4 | 2 |  |
